We go through 1 molecule from patent US20110076272A1, “THERAPEUTIC METHODS AND COMPOSITIONS” (priority 2009, published 2011).

Assay [1] has as its system MDA-MB-231 cells. Description: Disseminated bone metastasis model, MDA-MB-231 cells injected in the left ventricle. It is filed as in vivo, mouse. How it is done:
The therapeutic consequences of inhibiting either LOXL2 or LOX were assessed in a model of disseminated bone metastasis. Specific antibodies targeting LOXL2 or LOX were used to treat mice injected in the left ventricle with ˜1 million labeled MDA-MB-231 cells. The breast tumor cell line MDA-MB-231 has been widely used as a model to study LOX, and expresses all 5 lysyl oxidase-type enzymes (FIG. 11, panel A). The ability of LOXL2 inhibitory antibody AB0023 to reduce tumor burden was compared to LOX-specific antibody M64, which is a monoclonal antibody targeting the same peptide sequence in the LOX enzymatic domain previously described as generating an inhibitory polyclonal antiserum.

In assay [2] the target is T1, LOXL2 (Homo sapiens, UniProt Q9Y4K0).
T1 sequence (Q9Y4K0 26-774): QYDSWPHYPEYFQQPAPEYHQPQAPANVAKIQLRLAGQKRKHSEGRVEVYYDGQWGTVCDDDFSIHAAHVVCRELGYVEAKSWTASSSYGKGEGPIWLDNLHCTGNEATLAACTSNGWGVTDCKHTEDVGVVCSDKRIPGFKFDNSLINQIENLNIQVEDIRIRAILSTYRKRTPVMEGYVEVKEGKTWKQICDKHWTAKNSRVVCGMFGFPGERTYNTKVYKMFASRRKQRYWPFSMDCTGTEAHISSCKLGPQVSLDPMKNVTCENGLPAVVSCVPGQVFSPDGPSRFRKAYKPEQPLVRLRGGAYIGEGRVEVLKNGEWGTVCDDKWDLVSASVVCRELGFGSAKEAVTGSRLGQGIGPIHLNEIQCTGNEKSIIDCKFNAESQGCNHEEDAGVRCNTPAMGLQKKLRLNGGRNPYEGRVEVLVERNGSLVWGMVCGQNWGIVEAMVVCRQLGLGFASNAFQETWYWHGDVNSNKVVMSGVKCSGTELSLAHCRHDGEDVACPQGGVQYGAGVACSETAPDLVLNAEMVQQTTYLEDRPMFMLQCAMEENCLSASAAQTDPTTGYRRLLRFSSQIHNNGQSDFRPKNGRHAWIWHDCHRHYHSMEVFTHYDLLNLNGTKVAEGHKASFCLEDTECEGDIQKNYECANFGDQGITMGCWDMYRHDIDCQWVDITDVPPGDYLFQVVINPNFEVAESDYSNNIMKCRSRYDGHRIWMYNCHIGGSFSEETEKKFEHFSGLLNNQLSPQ
Description: Western blot analysis and ELISA of AB0023 specificity. It counts as binding. How it is done:
A mouse anti-human LOXL2 antibody (AB0023) was obtained by immunization with full-length LOXL2 protein and purified by SEC-HPLC (Tosoh TSKGEL G3000SWXL 7.8×300). Analytical size exclusion chromatography was used to assess antibody stability and purity. Purified AB0023 was run on SDS-PAGE Coomassie (Invitrogen BT 4-12% Gels) reducing and non-reducing gels to assess purity. Potency was examined by ELISA to determine Kd, and effect on LOXL2 enzymatic activity was determined using an Amplex Red Assay (Molecular Probes/Invitrogen, Carlsbad, Calif.). Antibody concentration was measured by absorbance at 280 nm using an Extinction Coefficient Abs 0.1% of 1.4. Identity was assayed by isoelectric focusing (Invitrogen pH 3-10 IEF Gels). For safety analysis, endotoxin levels were measured at a sensitivity range of 0.01-1 EU/ml (Charles River EndoSafe PTS).

In assay [3] the test system is MDA-MB-435 established primary tumors. Description: MDA-MB-435 established primary tumor xenograft model. It is filed as in vivo, mouse. The conditions noted are these: independent study; AB0023 5 mg/kg twice per week, BAPN 100 mg/kg daily.
Assay [4] concerns CCl4-induced liver fibrosis. The experiment in a line: CCl4-induced liver fibrosis. It counts as in vivo, mouse. The conditions noted are these: 30 mg/kg i.p. twice a week. Here is the method: Male BALB/c mice (10-12 weeks old) were obtained from Aragen Biosciences (Morgan Hill, Calif.). Mice were distributed into 4 groups. Mice in 3 of the groups were injected with CCl4 (Sigma-Aldrich, St. Louis, Mo.), and mice in the remaining group were injected with saline.
CCl4 was intraperitoneally administered to mice at 1 ml/kg body weight (CCl4: mineral oil in 1:1 (v/v) ratio) twice weekly for 4 weeks. In the control group, 0.9% saline (saline:mineral oil in 1:1 (v/v) ratio) was administered intraperitoneally using the same dosing regimen.
In the CCl4-treated groups, the first group was treated with AB0023 (diluted in PBS/0.01% Tween-20), the second group was treated with pep4 M64 (diluted in […]) and the third group was treated with vehicle (PBST). Antibodies and vehicle were injected intraperioneally at a dose of 30 mg/kg twice a week. The treatment started a day prior to the first administration of CCl4 and continued until the end of the study. The study was terminated after 4 weeks of CCl4 and antibody administration. Mice were euthanized and sacrificed humanely and the livers were harvested 96 hours after completion of dosing. The livers were snap-frozen for histological and immunohistochemical analyses.
Ten fields (or areas or lobes) for each treatment regimen were randomly selected and stained with Sirius Red. The area used for scoring was 1.7 mm×1.3 mm and contained at least 8 portal triads.
Triads and areas of complete bridging fibrosis were counted. […] The percentages from 10 fields (per treatment) were averaged and standard error was calculated.
For each treatment, five fields were selected and stained with an anti-alpha-smooth muscle actin (aSMA) antibody. aSMA-positive signal in the porto-portal region (threshold area %) was analyzed by Metamorph (Molecular Devices, Downingtown, Pa.). aSMA-positive signal in sections from animals undergoing AB0023-treatment was compared to signal obtained in sections from animals that had been treated with vehicle (PBS).

The test system of assay [5] is HFF cells. Description: Transwell co-culture of HFF cells with LOXL2-secreting tumor cell lines. It is filed as cell-based, human. Particulars: 72 hours co-culture.
The subject of assay [6] is Matrigel plug containing bFGF. Description: In vivo Matrigel plug angiogenesis assay. The conditions noted are these: 30 mg/kg i.p. twice weekly. Also noted: species or system mouse. Here is the method:
Athymic female Ncr:Nu/Nu mice were injected subcutaneously in the flank with 0.5 ml high-concentration Matrigel (BD Biosciences, San Jose, Calif.) supplemented with 100 ng/ml FGF and 60 U heparin. Matrigel injections were conducted one week after initiation of treatments with antibodies). Antibodies (or PBST, as a control) were administered by intraperitoneal injection of 30 mg/kg twice weekly. Matrigel plugs were harvested 10 days after implantation by excising the plug together with attached skin, and were fixed in 10% neutral buffered formalin and embedded in paraffin. 5 um sections were cut and stained with hematoxylin and eosin, anti-CD31 or anti-CD34 antibodies to assess degree of vessel formation.

B1: AB0023: mouse anti-human LOXL2 monoclonal antibody; heavy chain variable region SEQ ID NO:1, light chain variable region SEQ ID NO:2 (antibody, listed as Mus musculus, V domains shown)
VH: MEWSRVFIFLLSVTAGVHSQVQLQQSGAELVRPGTSVKVSCKASGYAFTYYLIEWVKQRPGQGLEWIGVINPGSGGTNYNEKFKGKATLTADKSSSTAYMQLSSLTSDDSAVYFCARNWMNFDYWGQGTTLTVSS
VL: MRCLAEFLGLLVLWIPGAIGDIVMTQAAPSVSVTPGESVSISCRSSKSLLHSNGNTYLYWFLQRPGQSPQFLIYRMSNLASGVPDRFSGSGSGTAFTLRISRVEAEDVGVYYCMQHLEYPYTFGGGTKLEIK
modifications: Heavy chain; Light chain
As to B1, the “reduction in tumor cell burden in the femurs, by median value” in assay [1] (day 28, p=0.0021) was determined as 127 fold. Moreover, the “reduction in tumor cell burden in total ventral bone, by median value” in assay [1] (day 28, p=0.0197) is reported as 28 fold. For the same molecule, in assay [1] (separate study, 30 mg/kg AB0023 twice weekly in combination with 5 mg/kg Paclitaxel once per week, p=0.025), the survival result was “significant survival benefit”. In addition, the “cross-reactivity with other lysyl oxidase-type enzymes” value in assay [2] was “no cross-reactivity”. In assay [3], the “reduction in collagen production, Sirius red staining” value is given as 47%; the “reduction in fibroblast activation, αSMA positivity” value was > 90%; the “reduction in tumor vasculature, CD31 signal” value was determined as 52%; the “reduction in tumor volume after 46 days” value turned out to be 38.4%. In addition, the “aSMA positive myofibroblasts in porto-portal septa” value in assay [4] is reported as “substantial reduction”. For the same molecule, the “mortality resulting from injection with CCl4 (survival)” value in assay [4] (AB0023 p=0.0029 log rank) is on record as “prevented”. In addition, the “bridging fibrosis in livers” value in assay [4] (Sirius Red, AB0023 p=0.002, M64 p=0.127) was “significantly inhibited”. In assay [5], the “reduction in VEGF protein expression” value is 39-46%, the “reduction in α-SMA levels” value worked out at 41% and the “relative decrease in pSMAD2 phosphorylation” value is recorded as 56-94%. The “CD31 positive cells in the matrigel plugs” value in assay [6] (p=0.0168) was “significant decrease”. The “reduction in average number of vessels in plugs versus vehicle” value in assay [6] (plugs at day 10, p=0.0319) is given as ~7 fold.
